Data on 2 compounds can be found in patent publication US12337037B2, “Taxol conjugate compounds, pharmaceutical compositions comprising the same, and methods for their use” (N1 Life, Inc, priority 2021, dated 2025).

The nature of data set [1]: In-life pharmacokinetics, single IP dose. The settings on record: CD-1 mice. On the procedure: General Procedure: A single-dose study was conducted in CD-1 mice. Groups (12 animals in each group) were administered an intraperitoneal (IP) dose of either Taxol (10 mg/kg), Compound 3 (38.4 mg/kg), or Compound 5 (38.4 mg/kg). Serial or terminal plasma samples (n=3 per timepoint) were collected from study animals at pre-determined times post-dose. Each mouse was serial bled 2 times (orbital bleeds) and one terminal bleed. The samples were collected in pre-chilled tubes for all steps. Upon completion of the in-life phase, the samples were analyzed using LC-MS/MS.
Assay Procedures: For analysis of analytes in mouse plasma, a 50.0 μL aliquot of each study sample was extracted with protein precipitation using 200 μl of 5% formic acid in methanol. Internal standards were added by adding 25.0 μL methanol containing 250 ng/mL tolbutamide and 1000 ng/mL Taxol-d5.
For Compound 5 and Compound 3 analysis, following centrifugation at 4000 rpm for 10 minutes, 150 μL of the supernatant was transferred to a clean 96 well collection plate for LC-MS/MS analysis.
For Taxol analysis, following centrifugation at 4000 rpm for 10 minutes, 75.0 μL of the supernatant was transferred into a clean 96 well collection plate containing 75.0 μL of deionized water. The plate was then capped and vortexed at 1650 rpm for 3 minutes prior to LC-MS/MS analysis.
Preparation of Standards and Quality Controls: Calibration standards of Compound 3 in mouse plasma were prepared on wet ice in blank mouse plasma at concentrations of 5.00, 10.0, 50.0, 100, 200, 250, 450, and 500 ng/mL. The low quality control ([LQC], 15.0 ng/mL), medium quality control ([MQC], 120 ng/mL) and high quality control ([HQC], 400 ng/mL) were prepared in blank mouse plasma.
Calibration standards of Taxol in mouse plasma were prepared on wet ice in blank mouse plasma at concentrations of 2.50, 5.00, 25.0, 125, 625, 1250, 2250, and 2500 ng/mL. The LQC, (7.50 ng/mL), MQC (120 ng/mL), and HQC (2000 ng/mL) were prepared in blank mouse plasma.
Sample Analyses: Mouse plasma samples were received from the in-life and were stored in a freezer set to −80° C.
Study samples were analyzed in 2 batches. At a minimum, each batch included the following: one set of calibration standards, a matrix blank (blank mouse plasma), a control-zero sample (blank mouse plasma with internal standard), and duplicate QC samples at 3 concentration levels (low, medium, and high) in addition to the study samples. Within each batch, the study samples were bracketed by calibration standards or QC samples.
Data Acquisition and Processing: The LC-MS/MS data acquisition was performed on an Agilent 1290 Infinity II HPLC system coupled with an AB SCIEX API 6500+ mass spectrometer. Chromatograms were integrated using Analyst 1.6.3 software. A weighted (1/x2, x=concentration) linear regression was used to generate the calibration curves and the regression was performed using Analyst 1.6.3 software. The concentration of the analyte in the samples was calculated using the peak area ratios of analyte to internal standard based on the calibration curve.

The nature of the next data set: Stability in plasma, rat. It is filed as in vitro ADME. The settings on record: for half-life: 37° C., read-out: Mean T1/2 (converted). As to the method:
Working solutions of test compounds were prepared in PBS (pH 7.4). Propantheline was used as positive control for human, monkey, dog and mouse plasma in the assay. Mevinolin was used as positive control for rat plasma in this assay. 1 mM propantheline working solution was prepared in acetonitrile. 1 mM mevinolin working solution was prepared in DMSO. Incubation buffer of 475 μL plasma for each cell was added into the incubation plate and pre-warmed at 37° C. for 15 minutes. After the pre-incubation, 25 μL of working solution (test compounds or control compounds) was spiked to plasma. For Compound 5 and Compound 3, the final concentration of organic concentration was 0%. For Taxol, the final concentration of organic solvents was 0.25%. The assay was performed in duplicate. The reaction samples were incubated at 37° C. Aliquots of 50 μL were taken from the reaction samples at 0, 0.25, 0.5, 1, 2, 4, 6, 8 and 24 hours. The reactions were stopped by the addition of 450 μL of ice-cold quench solution (methanol with 2% FA containing internal standards). All samples were vortexed for 10 minutes, following by centrifugation at 3,220 g for 30 minutes to precipitate proteins. 100 μL of the supernatant from each well was transferred to a new plate. The supernatant was diluted with ultrapure water. Samples were analyzed by LC-MS/MS. All calculations were carried out using Microsoft Excel. Peak area ratios were determined from extracted ion chromatograms. Percent compounds remaining at each time point were calculated by the following equation: Remaining Percentaget min(%)=Peak Area Ratiot min/Peak Area Ratio0 min×100
Peak Area Ratiot min is peak area ratio of control and test compounds at t min; and
Peak Area Ratio0 min is peak area ratio of control and test compounds at zero time point.
The slope value, k, was determined by linear regression of the natural logarithm of the remaining percentage of the parent drug vs. incubation time curve.
The in vitro half-life (in vitro t1/2) was determined from the slope value: in vitro t1/2=(0.693/k)

The mark [2] stands for this setting: analyte: Taxol, IP single dose, Cmpd 3 / Cmpd 5 38.4 mg/kg, Taxol 10 mg/kg.
[3] abbreviates: analyte: the administered conjugate, 38.4 mg/kg IP single dose.

For `CC(=O)N[C@@H](CSSCCCC(=O)OC(C(=O)O[C@H]1C[C@@]2(O)[C@@H](OC(=O)c3ccccc3)[C@@H]3[C@]4(OC(C)=O)CO[C@@H]4C[C@H](O)[C@@]3(C)C(=O)[C@H](OC(C)=O)C(=C1C)C2(C)C)[C@@H](NC(=O)c1ccccc1)c1ccccc1)C(=O)N[C@H](CCCNC(=N)N)C(=O)N[C@H](CCCNC(=N)N)C(=O)N[C@H](CCCNC(=N)N)C(=O)N[C@H](CCCNC(=N)N)C(=O)N[C@H](CCCNC(=N)N)C(=O)N[C@H](CCCNC(=N)N)C(=O)N[C@H](CCCNC(=N)N)C(=O)N[C@H](CCCNC(=N)N)C(N)=O` (stereo partly drawn) [Compound 3, Ac-L-Cysteine (paclitaxel-4-mercaptobutanoate)-D-Arginine8-NH2], the “Taxol/Cmpd AUC Ratio” value in data set [1] (38.4 mg/kg IP single dose) was determined as 81.84. In data set [1] (38.4 mg/kg IP), the “AUC ratio Taxol/compound, times higher than AUC ratio of Taxol/Compound 5” value was found to be 20 times and the “T1/2 of released Taxol, longer than that of Taxol released from Compound 5” value is given as 33.3%. The “AUMC0-t (h*h*nmol/L)” value in data set [1] (setting [2]) is listed as 72,372.302 h*h*nmol/L. Besides, the “AUMC0-t (h*h*nmol/L)” value in data set [1] (setting [3]) is 26.304 h*h*nmol/L. In addition, in “Stability in plasma, rat”, the “Percent Increase of T1/2, Compound 3 over Compound 5” value is 50% and the half-life is 27 min.
For the compound `CC(=O)N[C@H](CSSCCCC(=O)O[C@@H](C(=O)O[C@H]1C[C@@]2(O)[C@@H](OC(=O)c3ccccc3)[C@@H]3[C@]4(OC(C)=O)CO[C@@H]4C[C@H](O)[C@@]3(C)C(=O)[C@H](OC(C)=O)C(=C1C)C2(C)C)[C@@H](NC(=O)c1ccccc1)c1ccccc1)C(=O)N[C@H](CCCNC(=N)N)C(=O)N[C@H](CCCNC(=N)N)C(=O)N[C@H](CCCNC(=N)N)C(=O)N[C@H](CCCNC(=N)N)C(=O)N[C@H](CCCNC(=N)N)C(=O)N[C@H](CCCNC(=N)N)C(=O)N[C@H](CCCNC(=N)N)C(=O)N[C@H](CCCNC(=N)N)C(N)=O` [Compound 5, Ac-D-Cysteine (paclitaxel-4-mercaptobutanoate)-D-Arginine8-NH2], in data set [1] (38.4 mg/kg IP single dose), the “Taxol/Cmpd AUC Ratio” value is on record as 3.942. Moreover, the “Cmax of parent compound, fold higher than that of Compound 3” value in data set [1] (38.4 mg/kg IP) is listed as “over 100 fold”. For the same compound, the entries for the “AUMC0-t (h*h*nmol/L)” value in data set [1] (setting [2]) and in data set [1] (setting [3]) were 3274.99 h*h*nmol/L and 830.67 h*h*nmol/L, respectively. Also, the half-life in the data set “Stability in plasma, rat” was 18 min.
